Results taken from PMC10512822.

Molecular target: translocated ALK of ALK-translocated NSCLC tumors (n = 6) (human (endogenous in NSCLC tumors))
Test: proximity ligation; Duolink PLA with mouse HER3 and rabbit ALK antibodies on FFPE sections of ALK-translocated NSCLC tumors (n = 6)

mean signal for PLA per cell (signals per cell): 17.2
Substance: human epidermal growth factor receptor 3 (from UniProt P21860 20-1342)
